From publication PMC8373988 (2021)

Target: biotinylated-AviTag-haBiP^T229A-V461F (residues 27–635), unmodified (Chinese hamster, UniProt G3I8R9 27-635, T229A | V461F, biotin on the N-terminal Avi-tag)
Assay: BLI; ATP-bound BiP

Chain of biotinylated-AviTag-haBiP^T229A-V461F (residues 27–635), unmodified (G3I8R9 27-635 T229A/V461F): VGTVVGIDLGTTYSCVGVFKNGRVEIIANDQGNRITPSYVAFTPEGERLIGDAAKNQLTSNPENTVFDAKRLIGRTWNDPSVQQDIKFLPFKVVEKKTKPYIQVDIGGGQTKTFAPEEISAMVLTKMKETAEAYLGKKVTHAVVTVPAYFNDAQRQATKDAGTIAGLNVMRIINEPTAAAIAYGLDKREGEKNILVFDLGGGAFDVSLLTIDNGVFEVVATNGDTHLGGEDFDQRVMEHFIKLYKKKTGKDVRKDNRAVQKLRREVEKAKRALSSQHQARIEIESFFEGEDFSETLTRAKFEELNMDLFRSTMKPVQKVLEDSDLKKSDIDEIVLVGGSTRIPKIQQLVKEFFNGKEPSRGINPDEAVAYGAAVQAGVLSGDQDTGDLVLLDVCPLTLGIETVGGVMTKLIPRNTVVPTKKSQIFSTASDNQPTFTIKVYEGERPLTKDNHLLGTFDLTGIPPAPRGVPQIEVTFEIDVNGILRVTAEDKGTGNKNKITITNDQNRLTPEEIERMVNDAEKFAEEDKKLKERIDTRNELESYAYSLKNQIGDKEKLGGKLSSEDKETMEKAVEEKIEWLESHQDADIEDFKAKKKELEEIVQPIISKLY

B1: isolated TPR domain of FICD (domain or fragment)
chain: LEARAALNQALEMKRQGKREKAQKLFMHALKMDPDFVDALTEFGIFSEEDKDIIQADYLYTRALTISPYH
- koff: 0.176 s⁻¹
